Target: glycophorin A from human erythrocytes (human) (UniProt P02724)

Chain of Pasteurella haemolytica A1 glycoprotease (enzyme from culture supernatant) (P36175 whole entry): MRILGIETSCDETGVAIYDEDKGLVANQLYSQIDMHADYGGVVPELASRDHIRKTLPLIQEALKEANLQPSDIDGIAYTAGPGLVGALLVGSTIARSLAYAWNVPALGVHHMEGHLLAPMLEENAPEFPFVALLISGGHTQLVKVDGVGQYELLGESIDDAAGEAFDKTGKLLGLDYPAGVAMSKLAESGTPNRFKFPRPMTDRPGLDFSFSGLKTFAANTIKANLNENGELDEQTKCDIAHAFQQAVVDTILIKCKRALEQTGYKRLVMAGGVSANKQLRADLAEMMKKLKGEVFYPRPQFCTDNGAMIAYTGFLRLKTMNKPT

With “Pasteurella haemolytica A1 glycoprotease (enzyme from culture supernatant)” the Glycoprotease Specific Activity (nmol/mg/h), cleavage of [125I]-glycophorin A was 94 nmol/mg/h.
